Each block holds one binder with its values, some of them ahead of it.
Legend:
[1] = target: T1, ELMO2-RAE (sample of the ITC titration) (human, UniProt Q96JJ3 1-520); experiment: ITC; MicroCal iTC200, 25 °C; 50 mM Tris pH 8.0, 100 mM NaCl, 1 mM EDTA, 1 mM DTT; BAI1-EBD (~500 µM) in the syringe, ELMO2-RAE (~40 µM) in the cell; details: both partners purified
T1 construct: ELMO2, GenBank AF398886.1, aa 1-520 (RBD-ARR-ELMO tandem); Tag removal is described only for crystallography; also called Trx-His6-ELMO2-RAE; source: E. coli BL21 (DE3), purified (Ni-NTA, SEC)
T1 sequence (looked up): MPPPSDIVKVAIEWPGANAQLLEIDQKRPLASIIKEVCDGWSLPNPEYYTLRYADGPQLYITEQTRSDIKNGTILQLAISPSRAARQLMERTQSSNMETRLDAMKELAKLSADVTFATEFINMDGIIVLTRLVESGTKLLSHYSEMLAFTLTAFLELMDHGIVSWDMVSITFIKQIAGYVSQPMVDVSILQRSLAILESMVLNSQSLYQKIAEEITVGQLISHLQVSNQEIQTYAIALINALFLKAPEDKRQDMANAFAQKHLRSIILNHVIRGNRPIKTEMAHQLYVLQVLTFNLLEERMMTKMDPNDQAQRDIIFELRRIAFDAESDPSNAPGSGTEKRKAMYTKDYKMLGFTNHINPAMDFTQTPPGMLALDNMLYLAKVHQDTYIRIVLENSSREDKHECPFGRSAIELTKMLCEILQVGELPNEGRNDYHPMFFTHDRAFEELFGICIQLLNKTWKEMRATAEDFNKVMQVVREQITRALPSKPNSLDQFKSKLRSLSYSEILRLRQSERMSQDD

[2] = target: T2, ELMO2-RAE (tag removed, for crystallography) (human, UniProt Q96JJ3 1-520); experiment: crystal structure; ELMO2-RAE mixed with synthetic BAI1-EBD peptide at 1:2; 0.3 M ammonium fluoride, 18% PEG3,350, 16 °C; 1.7 Å, molecular replacement; details: both partners purified
T2 construct: ELMO2, GenBank AF398886.1, aa 1-520 (RBD aa 1-80, ARR aa 81-301, ELMO domain aa 306-513); also called RAE tandem of ELMO2; source: E. coli BL21 (DE3), purified (Ni-NTA, SEC, 3C protease cleavage, SEC)
T2 sequence (looked up): T1 sequence (looked up)

Kd [1]: ~3.36 µM | stoichiometry N [1]: 1
Binder: SLERRKSRYAELDFEKIMHTRKRHQDMFQDLNRKLQ (domain or fragment, mouse, UniProt Q3UHD1-1 1467-1502, looked up, the methods speak of 'BAI1 proteins') [BAI1-EBD (sample of the ITC titration)]

stoichiometry N [2]: 1
B1: synthetic BAI1-EBD peptide (peptide, UniProt Q3UHD1-1 1467-1502, looked up)
peptide: SLERRKSRYAELDFEKIMHTRKRHQDMFQDLNRKLQ
notes: aa 1471-1495 are defined in the electron density; source: synthetic peptide (ChinaPeptide Co.,Ltd.)
